The results in this text go back to patent US20050272635A1 (published 2005).

In this assay the target is T1, glycoprotein hormone beta 5 (GPHB5) (human, UniProt Q86YW7 25-130, one N-linked glycosylation (position not given)).
T1 construct: Secreted from the CHO 180 cell line co-expressing GPHA2 and GPHB5; also called beta subunit of CGH
T1 sequence: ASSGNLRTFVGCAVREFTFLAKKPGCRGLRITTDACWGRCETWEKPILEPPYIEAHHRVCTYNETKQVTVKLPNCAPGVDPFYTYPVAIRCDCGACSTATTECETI
As to the kind of experiment: co-expression in CHO cells; secreted heterodimer.

B1: glycoprotein hormone alpha2 (GPHA2) (ligand)
chain: QEAVIPGCHLHPFNVTVRSDRQGTCQGSHVAQACVGHCESSAFPSRYSVLVASGYRHNITSVSQCCTISGLKKVKVQLQCVGSRREELEIFTARACQCDMCRLSRY
modifications: two N-linked glycosylations (positions not given)
notes: Secreted from the CHO 180 cell line co-expressing GPHA2 and GPHB5; also called Zsig51; alpha subunit of CGH
With B1, the binding result was “binds”.
